Laboratory results: the DeepSol protein solubility set

assay: soluble on expression in E. coli; label from the status in PepcDB or PDB records

Soluble on expression in E. coli, not soluble:
MSIHSASPIIRRKSRKIWVGNVPVGGDAPIAVQSMTNTETCDVAATVAQIRRLEDAGADIVRVSVPDMDAAEAFGKIKQQVNVPLVADIHFDYRIALRVAELGVDCLRINPGNIGREDRVKAVVDAARERNIPIRIGVNAGSLEKDLQKKYGEPTPEALLESAMRHVDHLDKLDFQNFKVSVKASDVFMAVAAYRLLARQIEQPLHLGITEAGGLRSGTVKSAVGLGMLLAEGIGDTIRISLAADPVEEIKVGFDILKSLHLRSRGINFIACPSCSRQNFDVVKTMNELEGRLEDLLVPMDVAVIGCVVNGPGEAKEAHVGLTGGTPNLVYIDGKPSQKLTNDNLVDELERLIRQKAAEKAEADASLIARG
MSIMKQRLPLGEFSSSKINKLAIANIADASEPRNHGENNVGTVCLPSIKSLMVSPEVYENTKSLPVPLMRSSGGGMACASKSSCQDGISTKTTSRDYSELSKKLQIRLQFAYYKYKTKQTDKNFTDLKSKHSITRPSKVATHSKSEPLTRRRKLVLSQGHYKTPARSKIKTPSSICSHDNTSSFTSFRGVSESSSTTADMNVADTTTPIRNNINTKHSNSHNRTLYQRQETPTSIKAAKSLIHLFTSNQ
MSITQYLTEEHRKCDQIYAEVEKAVNEGNWEKAKELFKEFKEKTLLHFKKEEEVLFPEFEQRTGIVMGPTQVMRMEHDQARELLERMEKALEEKNKDEFLSLGESLMILIQQHNMKEEQILYPMSDQNLNAEKMVSKMAELGEV
MSKDIRTVRPPVQLLPKAIIAVRPASTAKADLEVMAAQVAQLTTACCQENIQVDSIIITFGGIKDITKRVKQLTEQKDISYLIIYSGKQIAENESEYVNFKRDMQDWYYLKVVCYR
MSKGFAFKPSALAAKADKLWSDSKTEYTATHSTINHVHLEKKSLGDIIPKSADAPVANEKEVEEAPQAFVFGSKISDRVVNKEGDSTKPGGSDEKTMTATELFQNAVKKDDDKNGAKNFRKEAEQEAERAKEAEKQHAGTSSVEITTGEENDTNIFQAPCKIWAFDKLKNAYSEKGVCNLRINKRVENGLTHHRIVARTSSGTLRVIINSKIFSDMLLERVDKRIRISAMGPEISGVQIFLLKIGFTKTETIPDSDIFYNIMSDLLKLEKGENSRKRKADCDLNASTVKIKDGKEEEEGDQDQVDEGFVIVNKPTEDEVKEEKPAVTAAEESASSSTPSE
MSKIASEVVATTLNDWYIAIKKQKVDESIKYYSEIKKLFDEMEEDQEVLAYYSLLEERHKMLLHSSRGEPLQKHTYFTEDNQNFITKTNDKLEYNFYLFEAMYEAYNKNYDRAINLYGLAEKKLAEIPDEIEAAEFYSKVSYLYTLVKQSIVAQHYIKNAISIYKRHPDYKCKLATSTMIAAANYADMKRFEEAEQYYLEAIDIAKETKDEFLKAQLFHNLSIVYSDWNKPDKCIESLEKAIGNESWLHSIYYINSLFMMIKELFKIDEKMKAINFYNKAQERLILMENKVYEAKISILYNLYCGELKNNFNNCISNIEFLKQQNELESVDELSYIAAKRFESIGAFEEATSFFNAKIWAEQKMNQVEGIL
MSKKEETIFFRIEKENRPESSKKEEDENSTEEMTTLNHASVTLDHSAFAIADKDGFKMYQLNPLHFRMYKDYVIKVGPVRLVKQDGNSRRIIYVSALAGGRFAQNNLMIFDVARNEEYFEITTPSRYGPITNIHVSPNRLVALNPNRMFVWTYPDDIKQIRSEDIRSNPKGISAMSYDPTTAACYLAYPGFKTGSVQIMHLNALTARESKSPIVIEAHLTDIAQVALNCQGTLVATGSTKGTVIRVFDARTKGPLYELRRGTVQAHLQCMAFSPCSSYLAVASDKGTLHMFGIRDAEPQKKKNVLERSRGSSSIVKIQLDRPVMAIGFGKIPETPKNLQSIIAICADATYWRHEFYKDNTGNFTSHFGSYDELIEVANDSSFFRTPVE
MSKLKKKEYEQELKKLQVELVKLQEWVKHKGLKVVVLFEGRDAAGKGGVIKRITEKLNHRVCRVVALPAPTEKEKTQWYFQRYVAHLPSAGEIVLFDRSWYNRAGVEKVMGFCTPDEYEEFLRSCPEFERMLQRSGIILLKYWFSVSDEEQEKRFLGRINTPIKRWKFSPMDLESRHRWAEYSEAKDKMFAYTDTKNCPWWVVPSDSKQKARLNCISHLLSQIEYKALEYPPIELPEINKEGYVRAPIDDQTFVPDKY
